Among the data in patent US20030119169A1 are apoptotic Sf9 cells on coexpression (percentage of cells) values, retold here.

The assay addresses truncated Mch3α (amino acids 199-303), p12 subunit (human) (UniProt P55210). The experiment in a line: cell-based or functional assay.

Where only a bound is given, the exact number is not on record here.

Chain of truncated Mch3α (amino acids 199-303), p12 subunit (human) (P55210 199-303): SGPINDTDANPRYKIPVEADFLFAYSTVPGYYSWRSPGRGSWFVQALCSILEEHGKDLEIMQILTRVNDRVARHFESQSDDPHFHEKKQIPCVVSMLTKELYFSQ

For the substance “CPP32-p20 subunit (from UniProt P42574 29-175) (enzyme)”, the apoptotic Sf9 cells on coexpression (percentage of cells) is greater than 50%.
